# T1: human CD5 cell differentiation marker (human, UniProt P06127 25-495)
# T1 sequence: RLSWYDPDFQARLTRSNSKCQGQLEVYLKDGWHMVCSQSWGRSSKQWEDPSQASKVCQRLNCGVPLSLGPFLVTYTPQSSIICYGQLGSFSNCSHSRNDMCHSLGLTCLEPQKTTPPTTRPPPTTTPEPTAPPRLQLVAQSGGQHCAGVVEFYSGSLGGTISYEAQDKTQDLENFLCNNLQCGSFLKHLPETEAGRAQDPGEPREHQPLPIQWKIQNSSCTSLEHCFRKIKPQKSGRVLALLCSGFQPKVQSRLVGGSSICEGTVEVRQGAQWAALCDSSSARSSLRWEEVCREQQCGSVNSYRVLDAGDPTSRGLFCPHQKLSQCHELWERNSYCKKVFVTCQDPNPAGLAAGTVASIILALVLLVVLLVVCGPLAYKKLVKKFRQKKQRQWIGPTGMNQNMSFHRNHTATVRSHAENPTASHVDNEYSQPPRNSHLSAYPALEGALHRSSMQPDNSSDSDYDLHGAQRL
# B1: he3Fab-rGelA50(C44) (other, not shown: a dimerising Fc or GST)
# heavy: EIQLVQSGGGLVKPGGSVRISCAASGYTFTNYGMNWVRQAPGKGLEWMGWINTHTGEPTYADSFKGRFTFSLDDSKNTAYLQINSLRAEDTAVYFCTRRGYDWYFDVWGQGTTVTVSS
# light: DIQMTQSPSSLSASVGDRVTITCRASQDINSYLSWFQQKPGKAPKTLIYRANRLESGVPSRFSGSGSGTDYTLTISSLQYEDFGIYYCQQYDESPWTFGGGTKLEIK
# chain: GLDTVSFSTKGATYITYVNFLNELRVKLKPEGNSHGIPLLRKKCDDPGKAFVLVALSNDNGQLAEIAIDVTSVYVVGYQVRNRSYFFKDAPDAAYEGLFKNTIKTRLHFGGSYPSLEGEKAYRETTDLGIEPLRIGIKKLDENAIDNYKPTEIASSLLVVIQMVSEAARFTFIENQIRNNFQQRIRPANNTISLENKWGKLSFQIRTSGANGMFSEAVELERANGKKYYVTAVDQVKPKIALLKFVDKDPK
# modifications: Cys 44 disulfide-linked through an M2IT linker to the Fab
# Biological target: T1, human CD5 cell differentiation marker
# Experiment: cell-based or functional assay
binder,measurement,value
B1,"IC50, whole cell cytotoxicity (inhibition of protein synthesis), CEM cells",173 pM T
same,"IC50, whole cell cytotoxicity (inhibition of protein synthesis), HSB2 cells",165 pM T

# — patent US20050054835A1 (XOMA TECHNOLOGY, published 2005)
